# Results published in patent US20240270846A1 (published 2024).
# Changes are numbered by the printed parent chain. Names may count otherwise.
# B1: CE115HA000 I51E one-arm antibody (antibody, human IgG1, kappa, L234A L235A, N297A, name in Kabat numbering)
# heavy: QVQLVESGGGVVQPGRSLRLSCAASGFTFSNAWMHWVRQAPGKGLEWVAQEKAKSNNYATYYAESVKGRFTISRDDSKNSLYLQMNSLKTEDTAVYYCRYVHYGAYYGVDAWGQGTTVTVSSASTKGPSVFPLAPSSKSTSGGTAALGCLVKDYFPEPVTVSWNSGALTSGVHTFPAVLQSSGLYSLSSVVTVPSSSLGTQTYICNVNHKPSNTKVDKKVEPKSCDKTHTCPPCPAPEAAGGPSVFLFPPKPKDTLMISRTPEVTCVVVDVSHEDPEVKFNWYVDGVEVHNAKTKPREEQYASTYRVVSVLTVLHQDWLNGKEYKCKVSNKALPAPIEKTISKAKGQPREPQVYTLPPSRCELTKNQVSLSCAVKGFYPSDIAVEWESNGQPENNYKTTPPVLDSDGSFFLVSKLTVDKSRWQQGNVFSCSVMHEALHNHYTQKSLSLSPDYKDDDDK
# chain: EPKSSDKTHTCPPCPAPELLGGPSVFLFPPKPKDTLMISRTPEVTCVVVDVSHEDPEVKFNWYVDGVEVHNAKTKPREEQYNSTYRVVSVLTVLHQDWLNGKEYKCKVSNKALPAPIEKTISKAKGQPREPQVCTLPPSRDELTKNQVSLWCLVKGFYPSDIAVEWESNGQPENNYKTTPPVLDSDGSFFLYSKLTVDKSRWQQGNVFSCSVMHEALHNRYTQKSLSLSP
# light: DIVMTQSPLSLPVTPGEPASISCRSSQSLVHSNRNTYLHWYQQKPGQAPRLLIYKVSNRFSGVPDRFSGSGSGTDFTLKISRVEAEDVGVYYCGQGTQVPYTFGQGTKLEIKRTVAAPSVFIFPPSDEQLKSGTASVVCLLNNFYPREAKVQWKVDNALQSGNSQESVTEQDSKDSTYSLSSTLTLSKADYEKHKVYACEVTHQGLSSPVTKSFNRGEC
# notes: one-arm antibody
# B2: CE115HA000 K52S one-arm antibody (antibody, human IgG1, kappa, L234A L235A, N297A, name in Kabat numbering)
# heavy: B1 heavy with E51I, K52S
# chain: B1 chain
# light: B1 light
# notes: one-arm antibody
# B3: CE115HA000 N31R one-arm antibody (antibody, human IgG1, kappa, L234A L235A, N297A, name in Kabat numbering)
# heavy: B1 heavy with N31R, E51I
# chain: B1 chain
# light: B1 light
# notes: one-arm antibody
# B4: CE115HA000 N31Q one-arm antibody (antibody, human IgG1, kappa, L234A L235A, N297A, name in Kabat numbering)
# heavy: B1 heavy with N31Q, E51I
# chain: B1 chain
# light: B1 light
# notes: one-arm antibody
# B5: CE115HA000 K52I one-arm antibody (antibody, human IgG1, kappa, L234A L235A, N297A, name in Kabat numbering)
# heavy: B1 heavy with E51I, K52I
# chain: B1 chain
# light: B1 light
# notes: one-arm antibody
# B6: CE115HA000 K52R one-arm antibody (antibody, human IgG1, kappa, L234A L235A, N297A, name in Kabat numbering)
# heavy: B1 heavy with E51I, K52R
# chain: B1 chain
# light: B1 light
# notes: one-arm antibody
# B7: CE115HA000 K52bA one-arm antibody (antibody, human IgG1, kappa, L234A L235A, N297A, name in Kabat numbering)
# heavy: B1 heavy with E51I, K54A
# chain: B1 chain
# light: B1 light
# notes: one-arm antibody
# B8: CE115HA000 N31H one-arm antibody (antibody, human IgG1, kappa, L234A L235A, N297A, name in Kabat numbering)
# heavy: B1 heavy with N31H, E51I
# chain: B1 chain
# light: B1 light
# notes: one-arm antibody
# B9: CE115HA000 K43E one-arm antibody (antibody, human IgG1, kappa, L234A L235A, N297A, name in Kabat numbering)
# heavy: B1 heavy with K43E, E51I
# chain: B1 chain
# light: B1 light
# notes: one-arm antibody
# B10: CE115HA000 K64D one-arm antibody (antibody, human IgG1, kappa, L234A L235A, N297A, name in Kabat numbering)
# heavy: B1 heavy with E51I, K67D
# chain: B1 chain
# light: B1 light
# notes: one-arm antibody
# B11: CE115HA000 K52D one-arm antibody (antibody, human IgG1, kappa, L234A L235A, N297A, name in Kabat numbering)
# heavy: B1 heavy with E51I, K52D
# chain: B1 chain
# light: B1 light
# notes: one-arm antibody
# B12: CE115HA000 K52bR one-arm antibody (antibody, human IgG1, kappa, L234A L235A, N297A, name in Kabat numbering)
# heavy: B1 heavy with E51I, K54R
# chain: B1 chain
# light: B1 light
# notes: one-arm antibody
# B13: CE115HA000 N31I one-arm antibody (antibody, human IgG1, kappa, L234A L235A, N297A, name in Kabat numbering)
# heavy: B1 heavy with N31I, E51I
# chain: B1 chain
# light: B1 light
# notes: one-arm antibody
# B14: CE115HA000 N31G one-arm antibody (antibody, human IgG1, kappa, L234A L235A, N297A, name in Kabat numbering)
# heavy: B1 heavy with N31G, E51I
# chain: B1 chain
# light: B1 light
# notes: one-arm antibody
# B15: CE115HA000 K52Y one-arm antibody (antibody, human IgG1, kappa, L234A L235A, N297A, name in Kabat numbering)
# heavy: B1 heavy with E51I, K52Y
# chain: B1 chain
# light: B1 light
# notes: one-arm antibody
# B16: CE115HA000 N31A one-arm antibody (antibody, human IgG1, kappa, L234A L235A, N297A, name in Kabat numbering)
# heavy: B1 heavy with N31A, E51I
# chain: B1 chain
# light: B1 light
# notes: one-arm antibody
# B17: CE115HA000 K52F one-arm antibody (antibody, human IgG1, kappa, L234A L235A, N297A, name in Kabat numbering)
# heavy: B1 heavy with E51I, K52F
# chain: B1 chain
# light: B1 light
# notes: one-arm antibody
# B18: CE115HA000 K64A one-arm antibody (antibody, human IgG1, kappa, L234A L235A, N297A, name in Kabat numbering)
# heavy: B1 heavy with E51I, K67A
# chain: B1 chain
# light: B1 light
# notes: one-arm antibody
# B19: CE115HA000 K52W one-arm antibody (antibody, human IgG1, kappa, L234A L235A, N297A, name in Kabat numbering)
# heavy: B1 heavy with E51I, K52W
# chain: B1 chain
# light: B1 light
# notes: one-arm antibody
# B20: CE115HA000 K52H one-arm antibody (antibody, human IgG1, kappa, L234A L235A, N297A, name in Kabat numbering)
# heavy: B1 heavy with E51I, K52H
# chain: B1 chain
# light: B1 light
# notes: one-arm antibody
# B21: CE115HA000 N31D one-arm antibody (antibody, human IgG1, kappa, L234A L235A, N297A, name in Kabat numbering)
# heavy: B1 heavy with N31D, E51I
# chain: B1 chain
# light: B1 light
# notes: one-arm antibody
# B22: CE115HA000 K43Q one-arm antibody (antibody, human IgG1, kappa, L234A L235A, N297A, name in Kabat numbering)
# heavy: B1 heavy with K43Q, E51I
# chain: B1 chain
# light: B1 light
# notes: one-arm antibody
# B23: CE115HA000 N31F one-arm antibody (antibody, human IgG1, kappa, L234A L235A, N297A, name in Kabat numbering)
# heavy: B1 heavy with N31F, E51I
# chain: B1 chain
# light: B1 light
# notes: one-arm antibody
# B24: CE115HA000 K52E one-arm antibody (antibody, human IgG1, kappa, L234A L235A, N297A, name in Kabat numbering)
# heavy: B1 heavy with E51I, K52E
# chain: B1 chain
# light: B1 light
# notes: one-arm antibody
# B25: CE115HA000 K52bL one-arm antibody (antibody, human IgG1, kappa, L234A L235A, N297A, name in Kabat numbering)
# heavy: B1 heavy with E51I, K54L
# chain: B1 chain
# light: B1 light
# notes: one-arm antibody
# B26: CE115HA000 K52bS one-arm antibody (antibody, human IgG1, kappa, L234A L235A, N297A, name in Kabat numbering)
# heavy: B1 heavy with E51I, K54S
# chain: B1 chain
# light: B1 light
# notes: one-arm antibody
# B27: CE115HA000 K52bY one-arm antibody (antibody, human IgG1, kappa, L234A L235A, N297A, name in Kabat numbering)
# heavy: B1 heavy with E51I, K54Y
# chain: B1 chain
# light: B1 light
# notes: one-arm antibody
# B28: CE115HA000 K64E one-arm antibody (antibody, human IgG1, kappa, L234A L235A, N297A, name in Kabat numbering)
# heavy: B1 heavy with E51I, K67E
# chain: B1 chain
# light: B1 light
# notes: one-arm antibody
# B29: CE115HA000 K52bD one-arm antibody (antibody, human IgG1, kappa, L234A L235A, N297A, name in Kabat numbering)
# heavy: B1 heavy with E51I, K54D
# chain: B1 chain
# light: B1 light
# notes: one-arm antibody
# B30: CE115HA000 K52N one-arm antibody (antibody, human IgG1, kappa, L234A L235A, N297A, name in Kabat numbering)
# heavy: B1 heavy with E51I, K52N
# chain: B1 chain
# light: B1 light
# notes: one-arm antibody
# B31: CE115HA000 K52bQ one-arm antibody (antibody, human IgG1, kappa, L234A L235A, N297A, name in Kabat numbering)
# heavy: B1 heavy with E51I, K54Q
# chain: B1 chain
# light: B1 light
# notes: one-arm antibody
# B32: CE115HA000 K52bN one-arm antibody (antibody, human IgG1, kappa, L234A L235A, N297A, name in Kabat numbering)
# heavy: B1 heavy with E51I, K54N
# chain: B1 chain
# light: B1 light
# notes: one-arm antibody
# B33: CE115HA000 N31K one-arm antibody (antibody, human IgG1, kappa, L234A L235A, N297A, name in Kabat numbering)
# heavy: B1 heavy with N31K, E51I
# chain: B1 chain
# light: B1 light
# notes: one-arm antibody
# Molecular target: T1, CD3 epsilon homodimer protein (UniProt P07766 23-126)
# T1 construct: also called CD3 (CD3 epsilon)
# Test: SPR Biacore T200, antibody over immobilised CD3e homodimer;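 note: CD3 epsilon homodimer amine-coupled on a CM4 chip, run at 25 °C in HBS-EP+, Z = bound amount of each single-residue H chain variant over that of the parent antibody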
# T1 sequence (P07766 23-126): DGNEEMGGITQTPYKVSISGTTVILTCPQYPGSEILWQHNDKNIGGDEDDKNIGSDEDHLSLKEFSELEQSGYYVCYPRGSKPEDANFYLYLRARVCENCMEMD
row,Binder,ratio of amounts bound (Z=Y/X vs CE115HA000)
1,B1,0.55
2,B2,0.28
3,B3,1.14
4,B4,0.49
5,B5,0.33
6,B6,0.91
7,B7,0.67
8,B8,0.68
9,B9,0.9
10,B10,0.72
11,B11,0.25
12,B12,1.11
13,B13,0.81
14,B14,0.39
15,B15,0.18
16,B16,0.5
17,B17,0.17

row,Binder,ratio of amounts bound (Z=Y/X vs CE115HA000)
1,B18,0.82
2,B19,0.22
3,B20,0.22
4,B21,0.37
5,B22,0.99
6,B23,0.62
7,B24,0.26
8,B25,0.61
9,B26,0.68
10,B27,0.74
11,B28,0.74
12,B29,0.27
13,B30,0.34
14,B31,0.6
15,B32,0.27
16,B33,1.01
